Test results: patent publication US20220340657A1 (L AND L BIO CO LTD NINGBO CHINA, published 2022)

T1: human LAG-3-his (human, UniProt P18627 23-422)
T1 construct: range 23-422; also called hLAG-3-his; hLAG-3
T1 sequence: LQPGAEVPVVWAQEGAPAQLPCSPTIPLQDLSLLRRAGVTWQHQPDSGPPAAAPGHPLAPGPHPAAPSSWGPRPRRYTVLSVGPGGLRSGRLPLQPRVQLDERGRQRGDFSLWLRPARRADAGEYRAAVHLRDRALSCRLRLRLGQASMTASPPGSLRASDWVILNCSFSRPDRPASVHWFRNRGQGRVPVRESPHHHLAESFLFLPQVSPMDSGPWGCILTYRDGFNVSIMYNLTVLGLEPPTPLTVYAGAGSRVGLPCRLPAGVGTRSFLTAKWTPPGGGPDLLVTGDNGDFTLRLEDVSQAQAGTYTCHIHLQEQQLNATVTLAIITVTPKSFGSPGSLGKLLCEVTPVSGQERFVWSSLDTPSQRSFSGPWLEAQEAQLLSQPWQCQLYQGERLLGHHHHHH

T2: bio-LAG3-mFc (human, UniProt P18627 23-450, biotin-labelled)
T2 construct: also called hLAG-3
T2 sequence (looked up): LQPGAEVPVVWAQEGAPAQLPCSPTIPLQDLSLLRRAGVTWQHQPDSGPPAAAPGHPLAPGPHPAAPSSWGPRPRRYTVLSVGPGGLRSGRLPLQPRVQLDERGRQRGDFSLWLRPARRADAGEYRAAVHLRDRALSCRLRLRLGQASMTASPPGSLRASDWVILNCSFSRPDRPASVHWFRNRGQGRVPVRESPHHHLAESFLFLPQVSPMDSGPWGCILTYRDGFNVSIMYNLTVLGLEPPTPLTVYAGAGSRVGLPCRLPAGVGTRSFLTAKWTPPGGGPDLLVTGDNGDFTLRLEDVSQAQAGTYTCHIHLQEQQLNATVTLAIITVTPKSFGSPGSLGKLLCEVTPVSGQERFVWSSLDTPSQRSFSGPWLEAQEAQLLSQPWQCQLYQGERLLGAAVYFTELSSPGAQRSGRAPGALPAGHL


How the values were obtained:
human PD-1 (hFc/his tag) = target: T3, human PD-1 (hFc/his tag) (human, UniProt Q15116 21-167); assay: ELISA on human PD-1
T3 construct: range 21-167; not shown: hFc or his tag

human LAG-3-his [1] = target: T1, human LAG-3-his; assay: ELISA on human LAG-3
human LAG-3-his [2] = target: T1, human LAG-3-his; assay: ELISA on hLAG-3
Experimental: After discarding the liquid, a blocking solution of 5% skimmed milk (Bright skimmed milk powder) diluted with PBS was added at 230 μl per well, followed by incubating at 37° C. for 3 hours or 4° C. overnight (16-18 hours) for blocking. Subsequently, the blocking solution was discarded, and the micropiate was washed 5 times with PBST buffer (pH 7.4 PBS containing 0.05% tweeen-20). Then 50 μl/well of the supernatant (containing the antibody to be tested) or a starting concentration of 10 μg/ml of the antibody to be tested, which was diluted 5 times in gradient, was added, followed by incubating the mixture for 1 hour at 37° C. […] After washing the microplate 5 times with PBST, 50 μl/well TIMB chromogenic substrate (KPL, Cat. No.: 52-00-03) was added, and then incubated for […] at room temperature. Finally, 50 μl/well of 1 M H₂SO₄ was added to stop the reaction. The absorbance value at 450 nm was read by […] GO microplate reader (ThermoFisher, Cat. No.: 51119200). The clones with high affinity were selected according to the OD value or the EC₅₀ value was calculated (for antibodies with known concentrations).

bio-LAG3-mFc = target: T2, bio-LAG3-mFc; assay: blocking ELISA, LAG-3 on Daudi cells

T3 sequence (Q15116 21-167, form in doubt): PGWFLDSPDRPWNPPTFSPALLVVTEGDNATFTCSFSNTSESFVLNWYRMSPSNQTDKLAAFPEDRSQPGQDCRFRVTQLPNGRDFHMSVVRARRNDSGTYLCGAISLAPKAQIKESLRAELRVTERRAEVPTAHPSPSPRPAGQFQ

Row | Binder | EC50 (human PD-1 (hFc/his tag)) [nM] | EC50 (human LAG-3-his [1]) [nM] | EC50 (human LAG-3-his [2]) [nM] | IC50 (bio-LAG3-mFc) [nM]
1 | Ab2314 (antibody, human IgG4 S228P, kappa, V domains shown, human kappa / hIgG4) VH: QVQLVQSGAEVKKPGASVKVSCKASGYTFTDYEMHWVKQAPGQGLEWIGGIDPETEGIAYNQKFRGRATLTADKSTSTAYMELRSLRSDDTAVYYCTNSNYYGGREAWFAYWGQGTLVTVSS VL: DIQMTQSPSSLSASVGDRVTITCRASQDIGSSLNWLQQKPGKAIKRLIYATSSLDSGVPSRFSGSRSGSDYTLTISSLQPEDFATYYCLQYVTSPLTFGGGTKVEIKR | – | – | 0.237 | 1.22
2 | Ab2322 (antibody, human IgG4 S228P, kappa, V domains shown, human kappa / hIgG4) VH: QVQLVQSGAEVKKPGASVKVSCKASGYTFTDYEMHWVKQAPGQGLEWIGGIDPETEGIAYNQKFRGRATMTTDTSTSTAYMELRSLRSDDTAVYYCTNSNYYGGREAWFAYWGQGTLVTVSS VL: DIQMTQSPSSLSASVGDRVTITCRASQDIGSSLNWYQQKPGKAPKRLIYATSSLDSGVPSRFSGSRSGSDFTLTISSLQPEDFATYYCLQYVTSPLTFGGGTKVEIKR | – | – | 0.131 | 2.32
3 | Ab2320 (antibody, human IgG4 S228P, kappa, V domains shown, human kappa / hIgG4) VH: QVQLVQSGAEVKKPGASVKVSCKASGYTFTDYEMHWVKQAPGQGLEWIGGIDPETEGIAYNQKFRGRATMTTDKSTSTAYMELRSLRSDDTAVYYCTNSNYYGGREAWFAYWGQGTLVTVSS VL: DIQMTQSPSSLSASVGDRVTITCRASQDIGSSLNWLQQKPGKAIKRLIYATSSLDSGVPSRFSGSGSGTDYTLTISSLQPEDFATYYCLQYVTSPLTFGGGTKVEIKR | – | – | 1.01 | 1.32
4 | Ab2318 (antibody, human IgG4 S228P, kappa, V domains shown, human kappa / hIgG4) VH: QVQLVQSGAEVKKPGASVKVSCKASGYTFTDYEMHWVKQAPGQGLEWIGGIDPETEGIAYNQKFRGRATLTADKSTSTAYMELRSLRSDDTAVYYCTNSNYYGGREAWFAYWGQGTLVTVSS VL: DIQMTQSPSSLSASVGDRVTITCRASQDIGSSLNWLQQKPGKAIKRLIYATSSLDSGVPSRFSGSRSGTDFTLTISSLQPEDFATYYCLQYVTSPLTFGGGTKVEIKR | – | – | 0.28 | 0.86
5 | LB2381 (bispecific antibody, human IgG4 S228P, kappa) light: DIQMTQSPSSLSASVGDRVTITCRASQDIGSSLNWYQQKPGKAPKRLIYATSSLDSGVPSRFSGSRSGSDFTLTISSLQPEDFATYYCLQYVTSPLTFGGGTKVEIKGGGGSGGGGSGGGGSQVQLVQSGAEVKKPGASVKVSCKASGYTFTDYEMHWVKQAPGQGLEWIGGIDPETEGIAYNQKFRGRATLTADKSTSTAYMELRSLRSDDTAVYYCTNSNYYGGREAWFAYWGQGTLVTVSSGGGGSGGGGSGGGGSEIVLTQSPATLSLSPGERATLSCRASKGVSTSGYSYLHWYQQKPGQAPRLLIYLASYLESGVPARFSGSGSGTDFTLTISSLEPEDFAVYYCQHSRDLPLTFGGGTKVEIKRTVAAPSVFIFPPSDEQLKSGTASVVCLLNNFYPREAKVQWKVDNALQSGNSQESVTEQDSKDSTYSLSSTLTLSKADYEKHKVYACEVTHQGLSSPVTKSFNRGEC heavy: not shown | 0.332 | 0.79 | – | –

Other lines, results leading:

Row | EC50 (human PD-1 (hFc/his tag)) [nM] | EC50 (human LAG-3-his [1]) [nM] | EC50 (human LAG-3-his [2]) [nM] | IC50 (bio-LAG3-mFc) [nM] | Binder
6 | 0.138 | 0.237 | – | – | LB2383 (bispecific antibody, human IgG4 S228P, kappa) light: EIVLTQSPATLSLSPGERATLSCRASKGVSTSGYSYLHWYQQKPGQAPRLLIYLASYLESGVPARFSGSGSGTDFTLTISSLEPEDFAVYYCQHSRDLPLTFGGGTKVEIKRTVAAPSVFIFPPSDEQLKSGTASVVCLLNNFYPREAKVQWKVDNALQSGNSQESVTEQDSKDSTYSLSSTLTLSKADYEKHKVYACEVTHQGLSSPVTKSFNRGEC heavy: not shown
7 | 0.309 | 0.951 | – | – | LB2382 (bispecific antibody, human IgG4 S228P, kappa) light: EIVLTQSPATLSLSPGERATLSCRASKGVSTSGYSYLHWYQQKPGQAPRLLIYLASYLESGVPARFSGSGSGTDFTLTISSLEPEDFAVYYCQHSRDLPLTFGGGTKVEIKRTVAAPSVFIFPPSDEQLKSGTASVVCLLNNFYPREAKVQWKVDNALQSGNSQESVTEQDSKDSTYSLSSTLTLSKADYEKHKVYACEVTHQGLSSPVTKSFNRGECGGGGSGGGGSGGGGSQVQLVQSGAEVKKPGASVKVSCKASGYTFTDYEMHWVKQAPGQGLEWIGGIDPETEGIAYNQKFRGRATLTADKSTSTAYMELRSLRSDDTAVYYCTNSNYYGGREAWFAYWGQGTLVTVSSGGGGSGGGGSGGGGSDIQMTQSPSSLSASVGDRVTITCRASQDIGSSLNWYQQKPGKAPKRLIYATSSLDSGVPSRFSGSRSGSDFTLTISSLQPEDFATYYCLQYVTSPLTFGGGTKVEIK heavy: not shown
8 | – | – | 0.181 | 2.18 | Ab2315 (antibody, human IgG4 S228P, kappa, V domains shown, LG2315 / LG2343, human kappa / hIgG4) VH: QVQLVQSGAEVKKPGASVKVSCKASGYTFTDYEMHWVKQAPGQGLEWIGGIDPETEGIAYNQKFRGRATLTADKSTSTAYMELRSLRSDDTAVYYCTNSNYYGGREAWFAYWGQGTLVTVSS VL: DIQMTQSPSSLSASVGDRVTITCRASQDIGSSLNWLQQKPGKAIKRLIYATSSLDSGVPSRFSGSGSGTDYTLTISSLQPEDFATYYCLQYVTSPLTFGGGTKVEIKR
9 | – | – | 0.764 | 1.85 | Ab2319 (antibody, human IgG4 S228P, kappa, V domains shown, human kappa / hIgG4) VH: QVQLVQSGAEVKKPGASVKVSCKASGYTFTDYEMHWVKQAPGQGLEWIGGIDPETEGIAYNQKFRGRATMTTDKSTSTAYMELRSLRSDDTAVYYCTNSNYYGGREAWFAYWGQGTLVTVSS VL: DIQMTQSPSSLSASVGDRVTITCRASQDIGSSLNWLQQKPGKAIKRLIYATSSLDSGVPSRFSGSRSGSDYTLTISSLQPEDFATYYCLQYVTSPLTFGGGTKVEIKR
10 | – | – | 0.307 | 1.5 | Ab2316 (antibody, human IgG4 S228P, kappa, V domains shown, human kappa / hIgG4) VH: QVQLVQSGAEVKKPGASVKVSCKASGYTFTDYEMHWVKQAPGQGLEWIGGIDPETEGIAYNQKFRGRATLTADKSTSTAYMELRSLRSDDTAVYYCTNSNYYGGREAWFAYWGQGTLVTVSS VL: DIQMTQSPSSLSASVGDRVTITCRASQDIGSSLNWLQQKPGKAIKRLIYATSSLDSGVPSRFSGSRSGSDFTLTISSLQPEDFATYYCLQYVTSPLTFGGGTKVEIKR
11 | – | – | 0.221 | 3.22 | Ab2313 (antibody, human IgG4 S228P, kappa, V domains shown, human kappa / hIgG4) VH: QVQLVQSGAEVKKPGASVKVSCKASGYTFTDYEMHWVKQAPGQGLEWIGGIDPETEGIAYNQKFRGRATLTADKSTSTAYMELRSLRSDDTAVYYCTNSNYYGGREAWFAYWGQGTLVTVSS VL: DIQMIQSPSSLSASVGDRVTITCRASQDIGSSLNWLQQKPGGAIKRLIYATSSLDSGVPSRFSGSRSGSDYSLTISSLQPEDFATYYCLQYVTSPLTFGGGTKVEIKR
